Target: prefusion-stabilized MERS-CoV spike protein, MERS S-2P (MERS-CoV, England1 (isolate United …, UniProt K9N5Q8, stabilised))
Experiment: negative-stain EM

B1: Anti-MERS-CoV S antibody CDC2-A2, Fab (Fab, V domains shown)
VH: QVQLVESGGGLVKPGGSLRLSCAASGFTFSDYYMSWIRQAPGKGLEWVSYISSSGSTIYYADSVKGRFTISRDNAKNSLYLQMNSLRAEDTAVYYCARVGLGSGWYDWFDPWGQGTLVTVSS
VL: QSALTQPPSVSGAPGQRVTISCTGSSSNIGASYDVHWYQHLPGTAPKLLIYGNTNRPSGVPDRFSGSKSGTSASLAITGLQAEDEADYYCQSYDSSLSGVVFSGGTKLTVL
binding result: binds

From article PMC11783452 (iScience, 2024)
